Results taken from paper PMC11889175, “Molecular principles of redox-coupled sodium pumping of the ancient Rnf machinery” (Nature Communications, 2025).
Read-outs that look alike come from different tables or passages of the source.

T1: RnfC subunit of the Rnf complex from Acetobacterium woodii (Acetobacterium woodii, UniProt H6LC32 1-443)
T1 construct: rnf genes amplified from genomic DNA
T1 sequence: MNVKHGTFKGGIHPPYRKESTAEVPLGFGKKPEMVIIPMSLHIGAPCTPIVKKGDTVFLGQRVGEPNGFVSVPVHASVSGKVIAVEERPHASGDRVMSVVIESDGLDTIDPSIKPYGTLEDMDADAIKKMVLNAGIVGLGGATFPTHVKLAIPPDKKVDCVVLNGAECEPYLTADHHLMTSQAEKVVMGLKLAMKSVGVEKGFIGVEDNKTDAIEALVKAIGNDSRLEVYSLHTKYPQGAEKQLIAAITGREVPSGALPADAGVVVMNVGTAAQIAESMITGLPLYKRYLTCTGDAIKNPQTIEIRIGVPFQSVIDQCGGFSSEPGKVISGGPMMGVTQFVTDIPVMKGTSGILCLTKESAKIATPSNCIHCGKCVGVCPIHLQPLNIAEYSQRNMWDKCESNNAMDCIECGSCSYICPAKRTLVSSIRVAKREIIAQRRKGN

B1: RnfB subunit of the Rnf complex from Acetobacterium woodii (natural protein)
chain: MLNAILVPVGILGVFGLIFGIGLAIAAKVFEVYEDPRVPLVRAALPGANCGGCGLPGCDALAANIVGGSAAIDACPVGGASCAAAVAEIMGMEAGSAVKKVATVICQGTCETAPNRAEYYGEMDCREAMIASGGSKGCRYGCLGYGTCKAVCPFDAIVIGEDGLPKVDPEKCTSCGKCVEACPKSIMTLVPEAQEVIVKCHNFDKGKIARLSCTTACIACGACVKACRFDAITVENNCAKIDYDKCRQCYECVDKCPMNCISGDVEYGKSTAYIIEENCIACGLCAKNCPVNAITGEIKKPPYVIDHDMCIGCGICFDKCRKSAIEMRPNKTK
notes: RnfB, membrane-anchored poly-ferredoxin subunit of the Rnf complex with eight [4Fe4S] clusters, Acetobacterium woodii; rnf genes amplified from genomic DNA; B8-domain is residues 30-100 of RnfB; also called poly-ferredoxin subunit RnfB
B2: RnfE subunit of the Rnf complex from Acetobacterium woodii (natural protein)
chain: MNFMKNLTRGIIRENPTFVLVLGMCPTLAVTTSAINGMGMGLATMLVLIGSNVAISALRKVIPDNIRIPAFVVVIASFVTIVGMLMKAYVPALDAALGIFIPLIVVNCIILARAEAFAFSNGIADSFADAVGMGLGFTLALTILGSIREILGAGSIFGFSLFGAAYEPVLLMILPPGAFLTLGLLIGLINWKTKKA
notes: RnfE, integral membrane subunit of the Rnf complex, homologous to RnfA (29% identity), Acetobacterium woodii; rnf genes amplified from genomic DNA
B3: RnfG subunit of the Rnf complex from Acetobacterium woodii (natural protein)
chain: METKEKVQIDWKVVFKLGLILFVISAVAACALALTNYVTAGTIEEMNVQTNTVARQEVLPKAADFEAVPAKDVEKIASEIGMEKPEELLEVYIGKSNGEVVGYTVKTGPTSGYAGEVQVLTGISADGVITGITIIKSNETPGLGAKASGVWNDQFTGKSAKEELVVVKGTTKEGSNEIQAITGSTITSKAVTSGVNMSIQVYQNLSK
modifications: FMN covalently linked to T185
notes: RnfG, membrane-anchored periplasmic flavoprotein subunit of the Rnf complex, Acetobacterium woodii; rnf genes amplified from genomic DNA; The complex was captured on Ni-NTA by this tag; no cleavage step is described; not shown: His-Tag, C-terminal, kept
B4: RnfA subunit of the Rnf complex from Acetobacterium woodii (natural protein)
chain: MTLIFIMISAIFVNNFVLSRFLGICPFLGVSKQVETAVGMGVAVTFVMALASAITYVVQYAILDPLSLGYLQTIAFILIIAALVQLVEMIIKKSSPSLYQALGVYLPLITTNCAVLGVALINIQNEYNFIETIFNGVGAALGFTLAIVLFAGIRERLETSAVPKALEGFPIALLTAGLMAIAFLGFSGMKL
notes: RnfA, integral membrane subunit of the Na+-pumping Rnf complex, Acetobacterium woodii; rnf genes amplified from genomic DNA
B5: RnfD subunit of the Rnf complex from Acetobacterium woodii (natural protein)
chain: MNELNLTVSSSPHIRAKHSTASIMQNVIIALLPALAVAGYVFGLWALALVAICVISSVATEAVIQKLLKKPITVNDWSAVVTGVLLAFNLPINAPWWIGVVGSVFAIAIVKQCFGGLGQNFINPALAARAFLLASWPGHMTSTAYIPLTDTVTTATPLALLKAGETGSMPSTLDLFTGLNGVYGCIGEISALALLIGGLYLIYKGIISWRIPTIYLLTIAIFALLVGQDPIVHMVSGGVMLGAFFMATDYASSPVTAKGQIIYAIGCGLITMIIRLYGGYPEGCSYSILLMNVATPLIERFTKERIYGVTKIKKEAKA
modifications: FMN covalently linked to T156
notes: RnfD, integral membrane subunit of the Rnf complex with ten transmembrane helices (riboflavin and covalent FMN), Acetobacterium woodii; rnf genes amplified from genomic DNA

What was measured:
[1] = target: T2, Rnf complex (NADH / FMN site in RnfC) (Acetobacterium woodii, UniProt H6LC32); assay: cryo-EM structure, […] Å; type: binding; parameters: whole six-subunit complex, His-tag at C-terminus of RnfG, plasmid-produced in A. woodii delta-rnf, DDM-solubilised, Ni-NTA and gel filtration, anoxic; with Na(+)-translocating ferredoxin:NAD(+) oxidoreductase complex subunit B; Na(+)-translocating ferredoxin:NAD(+) oxidoreductase complex subunit D; Na(+)-translocating ferredoxin:NAD(+) oxidoreductase complex subunit G; Na(+)-translocating ferredoxin:NAD(+) oxidoreductase complex subunit E; Na(+)-translocating ferredoxin:NAD(+) oxidoreductase complex subunit A; conditions: 500 µM NADH, 10 min, anoxic; stacks on non-covalent FMN of RnfC
[2] = target: Rnf complex (FMN^G site in RnfG) (Acetobacterium woodii, UniProt H6LC30); conditions: covalent, linked to T185 of RnfG; 5 µM FMN in purification buffer
[3] = target: Rnf complex (riboflavin and FMN^D sites in RnfD) (Acetobacterium woodii, UniProt H6LC31)
[4] = target: T2, Rnf complex (NADH / FMN site in RnfC); conditions: 30 µM ferredoxin pre-reduced by CO and CODH/ACS; 20 mM Tris/HCl, 20 mM NaCl, pH 7.2, 30 °C
[5] = target: T1, RnfC subunit of the Rnf complex from …; assay: cryo-EM structure; Rnf complex purified in DDM, grids prepared under strictly anoxic conditions; NADH-reduced (3.3 Å), Fd-reduced (2.8 Å; state with B8 closer to the membrane 2.9 Å) and apo (3.0 Å) states, all with the same overall organisation; conditions: both partners purified
[6] = target: B3; assay: as above; conditions: both partners purified
[7] = target: B1; assay: as above; conditions: both partners purified
[8] = target: B5; assay: as above; conditions: both partners purified
[9] = target: B2; assay: as above; conditions: both partners purified

NC(=O)C1=CN([C@@H]2O[C@H](COP(=O)(O)OP(=O)(O)OC[C@H]3O[C@@H](n4cnc5c(N)ncnc54)[C@H](O)[C@@H]3O)[C@@H](O)[C@H]2O)C=CC1 [NADH] was tested, and the “cryo-EM structure, 3.3 Å” value [1] was “we observed a well-resolved density for a bound NADH molecule”.

Cc1cc2nc3c(=O)[nH]c(=O)nc-3n(C[C@H](O)[C@H](O)[C@H](O)COP(=O)(O)O)c2cc1C [flavin mononucleotide] was tested, and the “cryo-EM structure, 2.8-3.3 Å” value [2] was “covalently binds FMN^G via T185^RnfG in its antiparallel βαβ-fold” and the “cryo-EM structure, 2.8-3.3 Å” value ([3]; covalent, linked to T156 of RnfD, 5 µM FMN in purification buffer) was “RnfD contains an FMN^D cofactor covalently linked to T156^RnfD”.

With NC(=O)c1ccc[n+]([C@@H]2O[C@H](COP(=O)(O)OP(=O)(O)OC[C@H]3O[C@@H](n4cnc5c(N)ncnc54)[C@H](O)[C@@H]3O)[C@@H](O)[C@H]2O)c1 [NAD^+] the “ferredoxin:NAD oxidoreductase assay” value [4] was “catalysed the ferredoxin-dependent reduction of NAD^+”.

In the case of Cc1cc2nc3c(=O)[nH]c(=O)nc-3n(C[C@H](O)[C@H](O)[C@H](O)CO)c2cc1C [riboflavin], the “cryo-EM structure, 2.8-3.3 Å” value ([3]; pocket of RnfD connected to cytoplasmic side, hydrogen bonds to D249 and N123 of RnfD) is reported as “RnfD binds the redox cofactor riboflavin (RBF)”.

B1: binds [5].

B2: binds [6].

B3: binds [7]; binds [8].

B4: binds [6]; binds [9].

B5: binds [5].
